These results are taken from article PMC11772769 (2024).

Numbering of substitutions follows the chain as printed. Where no end group is shown, it is not given here. The star is where a group is joined. 5FAM = O=C1OC2(c3ccc(O)cc3Oc3cc(O)ccc32)c2ccc(C(=O)*)cc21

The Kd is the constant that tells how readily two partners part at equilibrium. A lower Kd goes with higher affinity.

Holding throughout (assay): FP
One experiment concerns the target T1, MBP-SNX17 D467X (UniProt Q15036 1-466).
T1 chain: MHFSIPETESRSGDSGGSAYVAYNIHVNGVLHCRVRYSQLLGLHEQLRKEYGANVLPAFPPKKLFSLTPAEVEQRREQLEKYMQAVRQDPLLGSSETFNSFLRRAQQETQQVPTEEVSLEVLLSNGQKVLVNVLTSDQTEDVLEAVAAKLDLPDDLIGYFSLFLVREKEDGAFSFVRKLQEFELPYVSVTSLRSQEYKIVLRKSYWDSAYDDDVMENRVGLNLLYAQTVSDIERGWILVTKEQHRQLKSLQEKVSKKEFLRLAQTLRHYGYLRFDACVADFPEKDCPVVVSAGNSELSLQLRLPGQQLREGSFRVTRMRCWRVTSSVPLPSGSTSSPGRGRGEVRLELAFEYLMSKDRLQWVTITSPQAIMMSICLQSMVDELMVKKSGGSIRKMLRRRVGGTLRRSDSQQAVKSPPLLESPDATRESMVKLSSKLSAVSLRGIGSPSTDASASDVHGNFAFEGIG

Experiment [1] concerns the target T2, MBP-SNX17 (full-length, wild-type) (UniProt Q15036 1-470).
T2 chain: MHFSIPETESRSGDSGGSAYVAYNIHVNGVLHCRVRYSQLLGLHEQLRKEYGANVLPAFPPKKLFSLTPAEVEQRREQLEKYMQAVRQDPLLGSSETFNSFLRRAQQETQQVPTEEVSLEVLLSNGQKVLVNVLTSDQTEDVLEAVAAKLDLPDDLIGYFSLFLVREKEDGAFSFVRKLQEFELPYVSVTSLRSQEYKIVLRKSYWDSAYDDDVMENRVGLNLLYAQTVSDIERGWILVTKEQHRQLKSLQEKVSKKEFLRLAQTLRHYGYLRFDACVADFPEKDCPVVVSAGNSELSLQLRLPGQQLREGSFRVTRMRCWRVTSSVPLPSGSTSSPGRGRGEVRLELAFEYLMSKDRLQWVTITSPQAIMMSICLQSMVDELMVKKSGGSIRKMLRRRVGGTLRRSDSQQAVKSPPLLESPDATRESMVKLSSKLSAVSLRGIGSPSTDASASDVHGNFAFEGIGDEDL

A further experiment addresses T3, MBP-SNX17 L470G (UniProt Q15036 1-470, L470G).
T3 sequence: T2 chain with L470G

Turning to 5FAM-KLITYDNPAYEGID [Peptide L2_(14mer)], the equilibrium dissociation constant (Kd) with MBP-SNX17 D467X was 3200 nM; in experiment [1], 1100 nM; with MBP-SNX17 L470G it was 1100 nM.
Turning to 5FAM-MNVEIGNPTYKMYE [Peptide LRP1_(14mer)], the Kd with MBP-SNX17 D467X was determined as 8500 nM; in experiment [1], 3000 nM; with MBP-SNX17 L470G, 2800 nM.
